B1: anti-SCUBE2 mAb clone CR-#5 (antibody, IgG2b, V domains shown)
VH: EVQRVESGGDLVKPGGTLKLSCAASGFTFRNYGMSWVRQTPDKRLEWVATISSGGVYIYYPDSVKGRFTISRDNAKNTLFLQMSSLRSEDSAMYYCARDDYDGRGYFDYWGQGTTLTVSS
VL: DIVMSQSPSSLAVSAGEKVTMSCKSSQSLLNSRTRKNYLAWYQQKPGQSPKLLIYWASTRESGVPDRFTGSGSGTDFTLTISSVQAEDLAVYYCKQSYNLPTFGSGTKLDIK
B2: recombinant VEGF165 protein (ligand, UniProt P15692-4 27-191, looked up)
chain: APMAEGGGQNHHEVVKFMDVYQRSYCHPIETLVDIFQEYPDEIEYIFKPSCVPLMRCGGCCNDEGLECVPTEESNITMQIMRIKPHQGQHIGEMSFLQHNKCECRPKKDRARQENPCGPCSERRKHLFVQDPQTCKCSCKNTDSRCKARQLELNERTCRCDKPRR
notes: Bought reagent; also called VEGF-A165
B3: anti-SCUBE2 mAb clone EGF-C3 (antibody, IgG2a, V domains shown)
VH: EVKLVESGGGLVQPGGSRKLSCVASGFTISSFGMHWVRQAPERGLEWVAYISSGSNTIYYADTVKGRFTISRDNPKNTLFLQMTSLWSEDTAMYYCARSGTLDGWFTYWGRGTLVTVST
VL: DIVMTQPPLSLPVSLGDQASISCRSSQSILHSNGNTYLEWYLQKPGQSPKLLIYKLFNRFSGVPDRFNGSGSGTDFTLKISRAEAEDLGVYYCLQGSHVPPTFGAGTKLEIK
B4: anti-SCUBE2 mAb clone SP-B2 (antibody, IgG1, V domains shown)
VH: EVQRVESGGGLVKPGGSLKLSCAASGFTFRNYAMSWVRQTTEKKLEWVATINDVGSYTYFPASVKGRFTVSRDNTKNTLYLQMSSLRSEDTAMYYCVTSSDTVPHHHALDYWGQGSSVTVSS
VL: DIVMTQPPASLAVSLGQRATVFCRASQNVDSRGISFMHWYQQKPGQPPKLLIYAASNLESGIPARFRGSGSGTDFTLNIHPVEEEDVATYYCQQSVEDLTFGGGTKLELK
B5: anti-SCUBE2 mAb clone SP-A1 (antibody, IgG1, V domains shown)
VH: EVQLQQSGPELVKPGASVKVSCKASGYAFTSYNMYWVKQSHGKSLEWIGYIDPYNGDTNNNQKFKGKATLTVDKSSSTAYMHLNSLTSEDSAVYYCARSYRYLAWFAYWGQGTLVTVSA
VL: DIVMTQSPLSLPVSLGDQASISCRSSQSIVHSNGNTYLEWYLQKPGQSPKLLIYTVSNRFSGVPDRFSGSGSGTDFTLRISRVEAEDLGVYYCFQGSHIPYTFGGGTKLELK
notes: Mouse hybridoma mAb, IgG1
B6: anti-SCUBE2 mAb clone SP-B1 (antibody, IgG1, V domains shown)
VH: B5 VH
VL: B5 VL
notes: also called SP.B1 mAb
B7: human SCUBE2 (Signal peptide-CUB-EGF domain-containing protein 2) (receptor)
chain: RAAGPQEDVDECAQGLDDCHADALCQNTPTSYKCSCKPGYQGEGRQCEDIDECGNELNGGCVHDCLNIPGNYRCTCFDGFMLAHDGHNCLDVDECLENNGGCQHTCVNVMGSYECCCKEGFFLSDNQHTCIHRSEEGLSCMNKDHGCSHICKEAPRGSVACECRPGFELAKNQRDCILTCNHGNGGCQHSCDDTADGPECSCHPQYKMHTDGRSCLEREDTVLEVTESNTTSVVDGDKRVKRRLLMETCAVNNGGCDRTCKDTSTGVHCSCPVGFTLQLDGKTCKDIDECQTRNGGCDHFCKNIVGSFDCGCKKGFKLLTDEKSCQDVDECSLDRTCDHSCINHPGTFACACNRGYTLYGFTHCGDTNECSINNGGCQQVCVNTVGSYECQCHPGYKLHWNKKDCVEVKGLLPTSVSPRVSLHCGKSGGGDGCFLRCHSGIHLSSGLQGAYSVTCGSSSPLRNKQQKSNDSAFGDVTTIRTSVTFKLNEGKCSLKNAELFPEGLRPALPEKHSSVKESFRYVNLTCSSGKQVPGAPGRPSTPKEMFITVEFELETNQKEVTASCDLSCIVKRTEKRLRKAIRTLRKAVHREQFHLQLSGMNLDVAKKPPRTSERQAESCGVGQGHAENQCVSCRAGTYYDGARERCILCPNGTFQNEEGQMTCEPCPRPGNSGALKTPEAWNMSECGGLCQPGEYSADGFAPCQLCALGTFQPEAGRTSCFPCGGGLATKHQGATSFQDCETRVQCSPGHFYNTTTHRCIRCPVGTYQPEFGKNNCVSCPGNTTTDFDGSTNITQCKNRRCGGELGDFTGYIESPNYPGNYPANTECTWTINPPPKRRILIVVPEIFLPIEDDCGDYLVMRKTSSSNSVTTYETCQTYERPIAFTSRSKKLWIQFKSNEGNSARGFQVPYVTYDEDYQELIEDIVRDGRLYASENHQEILKDKKLIKALFDVLAHPQNYFKYTAQESREMFPRSFIRLLRSKVSRFLRPYK
notes: Signal peptide a.a; 1-37 and mature protein a.a; also GST.SCUBE2-CUB); also called FLAG.SCUBE2-FL; FLAG-tagged SCUBE2

Columns and labels:
[1] = biological target: B7; experiment: domain mapping (FIG. 12A); method not described
SCUBE1 [2] = biological target: T1, SCUBE1 (UniProt Q8IWY4 24-988, limits assumed); experiment: co-immunoprecipitation
T1 construct: also called SCUBE1 protein
T1 sequence (looked up): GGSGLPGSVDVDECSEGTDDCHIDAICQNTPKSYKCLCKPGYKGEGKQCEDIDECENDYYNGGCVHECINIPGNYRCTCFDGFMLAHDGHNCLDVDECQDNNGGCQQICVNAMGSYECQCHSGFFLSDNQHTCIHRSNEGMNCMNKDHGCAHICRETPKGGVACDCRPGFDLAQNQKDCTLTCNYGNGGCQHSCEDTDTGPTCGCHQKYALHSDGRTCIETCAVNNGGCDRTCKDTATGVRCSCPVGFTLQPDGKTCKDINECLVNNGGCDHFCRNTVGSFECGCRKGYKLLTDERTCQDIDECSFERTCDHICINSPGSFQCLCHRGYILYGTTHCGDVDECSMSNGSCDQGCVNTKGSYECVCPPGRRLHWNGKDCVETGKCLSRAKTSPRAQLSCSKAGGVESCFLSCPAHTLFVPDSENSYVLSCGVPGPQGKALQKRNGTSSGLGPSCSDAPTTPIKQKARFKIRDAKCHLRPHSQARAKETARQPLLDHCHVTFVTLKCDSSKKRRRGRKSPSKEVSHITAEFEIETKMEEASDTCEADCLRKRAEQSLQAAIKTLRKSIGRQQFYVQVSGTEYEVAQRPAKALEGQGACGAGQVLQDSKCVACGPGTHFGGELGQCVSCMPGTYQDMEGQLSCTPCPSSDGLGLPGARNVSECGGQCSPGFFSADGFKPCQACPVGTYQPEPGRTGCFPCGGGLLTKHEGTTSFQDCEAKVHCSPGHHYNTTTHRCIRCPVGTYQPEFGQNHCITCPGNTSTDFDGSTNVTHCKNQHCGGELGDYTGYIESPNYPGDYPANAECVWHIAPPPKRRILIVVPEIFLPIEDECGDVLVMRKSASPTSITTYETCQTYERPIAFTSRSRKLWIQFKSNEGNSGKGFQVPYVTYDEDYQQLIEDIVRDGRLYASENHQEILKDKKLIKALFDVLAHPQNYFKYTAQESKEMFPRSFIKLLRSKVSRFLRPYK

SCUBE3 [3] = biological target: T2, SCUBE3 (UniProt Q8IX30 21-993, limits assumed); experiment: co-immunoprecipitation
T2 construct: also called SCUBE3 protein
T2 sequence (looked up): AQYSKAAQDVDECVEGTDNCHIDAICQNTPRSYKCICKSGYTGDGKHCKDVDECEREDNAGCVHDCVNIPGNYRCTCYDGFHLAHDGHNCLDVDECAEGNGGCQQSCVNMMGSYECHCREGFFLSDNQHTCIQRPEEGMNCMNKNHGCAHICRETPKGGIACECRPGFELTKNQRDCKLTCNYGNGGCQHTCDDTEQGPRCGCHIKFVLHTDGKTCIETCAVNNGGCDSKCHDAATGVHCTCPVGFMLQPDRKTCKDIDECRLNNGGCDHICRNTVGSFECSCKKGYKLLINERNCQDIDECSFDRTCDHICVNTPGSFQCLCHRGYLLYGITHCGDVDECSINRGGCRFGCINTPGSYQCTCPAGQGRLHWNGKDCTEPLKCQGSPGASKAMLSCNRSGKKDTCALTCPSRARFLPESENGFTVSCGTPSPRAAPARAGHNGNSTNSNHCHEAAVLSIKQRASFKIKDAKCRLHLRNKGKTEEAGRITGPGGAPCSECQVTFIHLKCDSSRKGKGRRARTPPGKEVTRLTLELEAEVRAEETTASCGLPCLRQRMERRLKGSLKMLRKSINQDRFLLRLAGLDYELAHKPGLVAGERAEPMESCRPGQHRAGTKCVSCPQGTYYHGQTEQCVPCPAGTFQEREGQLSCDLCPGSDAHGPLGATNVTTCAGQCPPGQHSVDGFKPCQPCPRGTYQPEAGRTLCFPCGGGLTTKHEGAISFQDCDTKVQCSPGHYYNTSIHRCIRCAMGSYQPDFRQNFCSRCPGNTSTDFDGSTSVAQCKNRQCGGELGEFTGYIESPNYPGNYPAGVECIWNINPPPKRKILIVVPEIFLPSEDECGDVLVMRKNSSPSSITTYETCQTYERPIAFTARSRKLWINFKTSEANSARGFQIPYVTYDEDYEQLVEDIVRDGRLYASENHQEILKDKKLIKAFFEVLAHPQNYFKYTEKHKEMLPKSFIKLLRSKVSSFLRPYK

SCUBE1 [4] = biological target: T1, SCUBE1; experiment: western blot of recombinant SCUBE proteins expressed in HEK-293T cells (FIG. 13A)
SCUBE3 [5] = biological target: T2, SCUBE3; experiment: as above
VEGFR1 = VEGFR1 (UniProt P17948 27-1338, limits assumed); experiment: co-immunoprecipitation with anti-SCUBE2 antibody
EGFR = EGFR (UniProt P00533 25-1210, limits assumed); experiment: co-immunoprecipitation with anti-SCUBE2 antibody

VEGFR1, sequence (P17948 27-1338 limits assumed): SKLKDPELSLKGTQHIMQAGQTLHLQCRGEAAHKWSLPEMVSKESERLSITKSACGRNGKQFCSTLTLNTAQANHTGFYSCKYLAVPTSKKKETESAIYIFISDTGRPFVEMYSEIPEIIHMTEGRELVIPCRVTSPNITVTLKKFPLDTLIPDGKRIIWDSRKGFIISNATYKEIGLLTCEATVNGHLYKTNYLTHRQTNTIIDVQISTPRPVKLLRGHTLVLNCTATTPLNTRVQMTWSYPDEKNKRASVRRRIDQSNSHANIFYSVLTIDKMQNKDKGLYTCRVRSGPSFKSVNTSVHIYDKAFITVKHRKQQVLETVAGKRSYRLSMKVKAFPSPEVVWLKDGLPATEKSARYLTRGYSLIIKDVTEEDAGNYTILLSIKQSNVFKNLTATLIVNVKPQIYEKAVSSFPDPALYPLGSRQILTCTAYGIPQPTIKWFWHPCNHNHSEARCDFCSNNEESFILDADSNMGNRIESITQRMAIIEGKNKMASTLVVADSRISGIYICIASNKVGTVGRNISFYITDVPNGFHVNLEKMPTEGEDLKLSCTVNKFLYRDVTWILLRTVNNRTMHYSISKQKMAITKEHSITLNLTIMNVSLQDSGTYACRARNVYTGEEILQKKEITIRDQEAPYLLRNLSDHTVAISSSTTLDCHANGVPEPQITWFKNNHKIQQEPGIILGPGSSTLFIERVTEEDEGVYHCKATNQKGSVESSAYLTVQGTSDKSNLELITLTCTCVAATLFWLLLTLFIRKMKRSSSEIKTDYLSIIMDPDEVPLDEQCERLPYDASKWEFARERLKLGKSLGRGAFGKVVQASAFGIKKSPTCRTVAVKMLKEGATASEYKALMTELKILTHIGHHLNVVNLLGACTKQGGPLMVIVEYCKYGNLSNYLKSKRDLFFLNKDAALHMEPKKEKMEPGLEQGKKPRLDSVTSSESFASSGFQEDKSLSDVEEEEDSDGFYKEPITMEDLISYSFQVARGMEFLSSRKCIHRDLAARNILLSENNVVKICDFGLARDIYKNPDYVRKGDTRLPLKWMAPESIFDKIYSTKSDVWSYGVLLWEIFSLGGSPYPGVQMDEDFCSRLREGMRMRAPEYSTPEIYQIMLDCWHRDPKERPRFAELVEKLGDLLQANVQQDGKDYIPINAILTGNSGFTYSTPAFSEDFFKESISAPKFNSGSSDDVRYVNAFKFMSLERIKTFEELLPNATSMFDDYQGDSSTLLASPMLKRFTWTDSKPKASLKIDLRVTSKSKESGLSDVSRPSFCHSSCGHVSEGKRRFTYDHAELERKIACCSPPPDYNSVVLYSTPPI

B1
binding result [1]: binds

B2
binding result (SCUBE1 [2]): no binding
binding result (SCUBE3 [3]): no binding

B3
binding result [1]: binds

B4
binding result [1]: binds

B5
binding result [1]: binds

B6
binding result (SCUBE1 [4]): no binding
binding result (SCUBE3 [5]): no binding
binding result [1]: binds

B7
binding result (VEGFR1): no binding
binding result (EGFR): no binding

Reference: patent publication US20190127454A1 (ACADEMIA SINICA, published 2019)
